Assay results taken from patent US20110033476A1 (published 2011).

Biological target: 23 amino acid synthetic peptide corresponding to the M2e domain of A/Fort Worth/1/50 (H1N1) (Influenza A virus A/Fort Worth/1/50 (H1N1))
Assay: ELISA, 23mer M2e peptide coated at 1 µg/mL (FIG. 14b)

“chimeric mouse V-region/human IgG1 kappa 14C2 antibody” gave an EC50 of 0.01 µg/mL.
